Data on one molecule can be found in article PMC11753358 (Oncogene, 2024).

In the assay the target is human EphA2-Fc, biotinylated (human, UniProt P29317 24-537, biotin (EZ-Link Sulfo NHS-LC-LC-Biotin, 1:1 molar ratio)). Briefly: BLI.
Sequence of human EphA2-Fc, biotinylated (P29317 24-537): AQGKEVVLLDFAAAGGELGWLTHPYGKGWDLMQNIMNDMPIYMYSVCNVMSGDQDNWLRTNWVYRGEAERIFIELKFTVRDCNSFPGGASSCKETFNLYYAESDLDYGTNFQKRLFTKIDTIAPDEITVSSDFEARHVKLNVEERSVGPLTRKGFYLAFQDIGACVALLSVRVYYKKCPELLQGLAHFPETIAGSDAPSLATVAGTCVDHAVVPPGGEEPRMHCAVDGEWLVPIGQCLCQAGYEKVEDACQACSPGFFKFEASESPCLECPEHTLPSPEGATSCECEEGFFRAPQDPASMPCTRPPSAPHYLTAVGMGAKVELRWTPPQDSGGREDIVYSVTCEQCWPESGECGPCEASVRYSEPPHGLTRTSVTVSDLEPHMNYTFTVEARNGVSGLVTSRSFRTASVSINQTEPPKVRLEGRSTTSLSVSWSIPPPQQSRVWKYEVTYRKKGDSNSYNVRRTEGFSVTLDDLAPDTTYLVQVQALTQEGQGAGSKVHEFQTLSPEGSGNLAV

B1: human ephrin-A1-Fc (recombinant soluble ephrin-A1 fused to human IgG1Fc) (Fc fusion, UniProt P20827 19-182, looked up)
chain: DRHTVFWNSSNPKFRNEDYTIHVQLNDYVDIICPHYEDHSVADAAMEQYILYLVEHEEYQLCQPQSKDQVRWQCNRPSAKHGPEKLSEKFQRFTPFTLGKEFKEGHSYYYISKPIHQHEDRCLRLKVTVSGKITHSPQAHDNPQEKRLAADDPEVRVLHSIGHS
B1: the binding result is on record as “binds”.
